For the series, the target named is T1, PriB (Escherichia coli, UniProt P07013 1-104).
T1 sequence: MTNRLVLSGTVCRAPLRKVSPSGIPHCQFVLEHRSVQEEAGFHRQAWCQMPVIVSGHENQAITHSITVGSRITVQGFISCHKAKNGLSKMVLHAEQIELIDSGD
As to the kind of experiment: sedimentation equilibrium.

B1: 5'Fl-dT(pT)25 (called 27-mer) (ssDNA)
DNA: TTTTTTTTTTTTTTTTTTTTTTTTTT
As for B1, the binding result is “binds”.

The values above are taken from PMC3226724.
